# Assays:
# MS2 coat protein [1] = assay: apparent KD of MS2 coat protein; higher = weaker reporter binding; settings: Eterna round: R101
# Description: (§1)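 RNA-MaP: designed FMN/MS2 RNA switches (84 nt design region) are transcribed on-chip within common flanks and titrated with SNAP-549-labelled MS2 coat protein (about 1-3000 nM) in 100 mM Tris pH 7.5, 80 mM KCl, 4 mM MgCl2, without or with 200 uM FMN. Median apparent KD per design; activation ratio = KD,OFF / KD,ON.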
# MS2 coat protein [2] = assay: apparent KD of MS2 coat protein; designed switch direction (-1 OFF switch, 1 ON switch): -1; higher = weaker reporter binding; settings: Eterna round: R98
# Description: as §1
Sequence,apparent KD of MS2 coat protein (MS2 coat protein [1]; input ligand: FMN 200 uM) [µM],apparent KD of MS2 coat protein (MS2 coat protein [1]; input ligand: none) [µM],apparent KD of MS2 coat protein (MS2 coat protein [2]; input ligand: FMN 200 uM) [µM],apparent KD of MS2 coat protein (MS2 coat protein [2]; input ligand: none) [µM]
AAAUGUACGAAGAAGGCUCUGCCACUGGCCGAGAGAGGAUAUUCACACAUGAGGAUCACCCAUGUCGAACAAAGUACACAGAGC [EternaBot1858] (puzzle (switch architecture): Inverted Same State NG 1),0.00705,,,
CGCUAUGACAUGAGGAUCACCCAUGUAUACAUGGGAAUGACGUAGGAUAUGCAGAAGAUUAAAGUGCAGAAGGACGGCUUUGCG [JR #DistanceClose #Static #NP SSNG3 Sub063] (puzzle (switch architecture): Same State NG 3),0.214,0.433,,
GGUACUCAAAGAGUACCAAUACGAACAUGAGGAUCACCCAUGUAGGAUAUGCUACUCAAAGAGUAGCAGAAGGACAUGUGUAAA [OmeiMod 10 - Jieux - Exclusion NG 3],,,0.567,0.0924
CCUGCACCUCAAGGAUAUCCAGUCGAAACGACUGGAGAAGGUGAGGAUCACCCAUCUAGCCUGACGAAAGUCAGGCAUGCAGGA [#SharedSequence - ExNG1-5] (puzzle (switch architecture): Exclusion NG 1),0.848,,,
GCCAUCGCAUGAGGAUAUGCUCCCGUUUCGGGAGCAGAAGGCAUGUCAUAAGACAUGAGGAUCACCCAUGUAGUUAAGAUGGCA (puzzle (switch architecture): Same State NG 1),0.0117,0.285,,
GAACUCACGGCAUGCAUAUAAGCACAUGAGGAUCACCCAUGUCAGGAUAUCCACGGUCGUGCUUCGGAGAAGGGACAUGAGGCG [Lainxe],,,0.048,0.0517
AUGCCGUGCAGAGCGCAACGGCGUACAUGAGGAUCACCCAUGUAGGAUAUACUACACAAAGUGUAGUAGAAGGACAUGCGACUG [Ex NG2 #93],,,0.185,0.0567
AAACUGCCACAUGAGGAUCACCCAUGUAAAUAAAGUAUUUGAAGAAGGGCGAUAGCAAAGCUAUCGCAGGAUAUUCUCAGGCAG [#GuReductionToAU - jl-sng2-2.35] (puzzle (switch architecture): Inverted Same State NG 3),0.00834,0.0437,,
CCUGCACUUCAAGGAUAUCCAGUCGAAACGACUGGAGAAGGUGAGGAUCACCCACCUAGCCUGACGAAAGUCAGGCAUGCAGGA [#SharedSequence - ExNG1-3] (puzzle (switch architecture): Exclusion NG 1),0.00806,0.00862,,
UCUUAAAUGAUCCUAUUUACCAACAUGAGGAUCACCCAUGUGCAGGAUAUGCUAAAGAUAAAUAAGCAGAAGGGCAAUAACCGC [JR_ExcNG3_Sub007],,,0.608,0.127
AAUAAUUCUCAAGGAUAUGACUCCGAAACGGAGUCAGAAGGUGAGGAUCACCCACCUAGCUCAGCGUCGAAAGACGCUGAGCAA [#SharedSequence ExNG1 - 35] (puzzle (switch architecture): Exclusion NG 1),0.314,0.0184,,
UCAUACAUGAGGAUCACCCAUGACAUGAGGAUCACCCAUGUGCAGGAUAUACGUGAUAUAAUAUAGUAGAAGGGCAGACUAUAA [LRO006_Exclusion NG 3],,,0.053,0.0398
AAUAUAAAGAGCUGGCUUCUAAUAACAUGAGGAUCACCCAUGUAGGAUAUCAGCACGAUAAGUGCUGAGAAGGACAUCCAGCUC [Denovo 53],,,0.0143,0.0144
UGUAUUAAUGGAGGAUAUCAAUAUCAAACAUGAGGAUCACCCAUGUUGAGGAUCACCCAUGUCCAUGAGAAGGCUGGCGUACGU [My 19th design] (puzzle (switch architecture): Same State NG 2),0.0109,0.00937,,
CUAUAGAUAUGAGGAUAUGUAUAUCCAACAUGAGGAUCACCCAUGUUGAGGAUCACCCAUGUAAAGCAGAAGGCAUAUCUAUAG [#HighScoreProbStacks] (puzzle (switch architecture): Same State NG 2),0.0166,0.0215,,
AAAUAAAUUGAAGGAUAUCAGGGUGCACCUCAGUAAAACUGAGGUGCACCCUGAGAAGGUCGAGGAUCACCCGACCUAAAUAAA [#SharedSequence SLExNG1: 4-2] (puzzle (switch architecture): Small Loop Exclusion NG 1),0.00837,0.00763,,
ACACGUCGUGAGAAGGAGGAUCACCCUUUCGAAAGAAAUAGCCACCGUGAAAACGGUGGCAGAUUUUAGGAUAUCACGACGUGA [#SharedSequence - IExNG2: 9] (puzzle (switch architecture): Inverted Exclusion NG 2),0.113,0.0883,,
GGACGUCACAUUAACAUGAGGAUCACCCAUGUCAAAAGACAUGAGGAUAUGGAUCCUAAUUGGAUCCAGAAGGCAUGGACGUCC [#HiddenHairpinInALoop - Fiskers NG3ss - 39] (puzzle (switch architecture): Same State NG 3),0.0148,0.236,,
GUGGUUGUCGUAGGAUAUGUAGGAUAUUCCUACAUGAGGAUCACCCAUGUUCGCAUGGAAGAAGGACAGAAGGACGAUGACCAG [salish99_SSNG2_011 #endbits investigation] (puzzle (switch architecture): Same State NG 2),0.00985,0.855,,
UAAGUCGGAAGAUAAUAAUGAAUACAUGAGGAUCACCCAUGUAAGGAUAUGCAGUGGAAUACACUGCAGAAGGUACAAACCGAC [Exclusion NG 3/17-A2],,,0.0246,0.0152
AAAAGAACCCGAGGAUAUGCGAAAUCACGAAGAGCAGAAGGCGGCUACAUGUGGAUCCGAGGACAUGAGGAUCACCCAUGUACG [Iszaaatce],,,0.165,0.321
AGGAGAAAUGUAGGAUAUAUAUAUAUAUAUGGGCAAAGCGCAUAUAUAUAUAUAGAAGGACAUGAGGAUCACCCAUGUUUCCCU [#Lowering the energy 11] (puzzle (switch architecture): Small Loop Exclusion NG 1),0.0109,0.0108,,
AGAGCUGCUCAGAAGGAGGAUCACCCUUUCGAAAGAAAUACGGAGGCUGAAAAGCCUCCGAAAUCCUAGGAUAUGAGCAGCUCA [#SharedSequence - IExNG2: 3] (puzzle (switch architecture): Inverted Exclusion NG 2),0.00743,0.791,,
AAAUAAACCUUAGGAUAUGACUCCGAAACGGAGUCAGAAGGGAGGAUCACCCUCUUCAGCUCAGCGUCGAAAGACGCUGAGCAA [#SharedSequence ExNG1 - 21] (puzzle (switch architecture): Exclusion NG 1),0.0633,0.0729,,
CUGUGACGGAUCCAGAAUUACAACAUGAGGAUCACCCAUGUGCAGGAUAUCGGGUUGAUAGGCGCCGAGAAGGGUAUGAUCACG [Ex NG2 #37],,,0.0773,0.08
